According to patent publication EP4745153A1, “GLP-1, GIP AND GCG RECEPTOR […] USE THEREOF” (Jiangsu Hengrui Pharmaceuticals Co., Ltd., priority 2023, dated 2025):
Starred links: 1 amine or outer side, 2 acyl side, 3 side chain; linkers in the order of their positions; H or OH if unused. Non-standard residues stand in square brackets, D forms with d. Groups on a side chain read outwards from the residue. No end group written: not given here. *: point of attachment. C20 diacid = O=C(O)CCCCCCCCCCCCCCCCCCC(=O)*; γGlu = O=C(O)[C@H](CCC(=O)[*:2])N[*:1]; αMeK = C[C@](N)(CCCCN)C(=O)O; Iva = CC[C@](C)(N)C(=O)O; AEEA = NCCOCCOCC(=O)O; Aib = CC(C)(N)C(=O)O

T1: human glucose-dependent insulinotropic polypeptide receptor (human, UniProt P48546 22-466)
T1 sequence (looked up): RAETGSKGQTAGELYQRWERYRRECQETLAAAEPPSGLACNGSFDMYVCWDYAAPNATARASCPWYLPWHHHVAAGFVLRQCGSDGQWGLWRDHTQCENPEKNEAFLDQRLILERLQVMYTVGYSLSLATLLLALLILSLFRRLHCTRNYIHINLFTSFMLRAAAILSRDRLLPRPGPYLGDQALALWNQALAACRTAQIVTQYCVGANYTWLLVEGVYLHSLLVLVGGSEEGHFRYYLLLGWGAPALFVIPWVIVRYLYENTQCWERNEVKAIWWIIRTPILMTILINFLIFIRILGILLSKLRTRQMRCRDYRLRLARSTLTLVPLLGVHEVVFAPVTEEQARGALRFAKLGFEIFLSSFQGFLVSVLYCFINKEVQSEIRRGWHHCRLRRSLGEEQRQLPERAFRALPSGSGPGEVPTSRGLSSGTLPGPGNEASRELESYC


Columns and labels:
Test in all cases: cell-based or functional assay
[1] = target: human glucagon-like peptide-1 receptor (human, UniProt P43220 24-463)
[2] = target: human glucagon receptor (human, UniProt P47871 26-477)
human glucagon receptor, sequence (P47871 26-477): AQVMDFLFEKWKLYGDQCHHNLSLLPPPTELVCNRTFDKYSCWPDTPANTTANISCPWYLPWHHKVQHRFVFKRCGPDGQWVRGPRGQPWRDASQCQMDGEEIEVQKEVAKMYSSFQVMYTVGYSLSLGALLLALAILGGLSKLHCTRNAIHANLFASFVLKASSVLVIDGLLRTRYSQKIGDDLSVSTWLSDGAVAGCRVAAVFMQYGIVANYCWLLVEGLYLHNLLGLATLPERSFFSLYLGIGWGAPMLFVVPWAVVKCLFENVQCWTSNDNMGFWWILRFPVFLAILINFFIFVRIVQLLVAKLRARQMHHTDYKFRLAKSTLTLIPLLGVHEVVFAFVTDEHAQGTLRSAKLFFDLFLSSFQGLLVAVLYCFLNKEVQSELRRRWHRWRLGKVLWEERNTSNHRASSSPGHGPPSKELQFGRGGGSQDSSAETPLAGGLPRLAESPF

[3] = target: T1, human glucose-dependent insulinotropic …

| Binder | Activity against human GLP-1R (EC50 nM) [1] [nM] | Activity against human GCGR (EC50 nM) [2] [nM] | Activity against human GIPR (EC50 nM) [3] [nM] |
| --- | --- | --- | --- |
| H[Aib]HGTFTSDLS[αMeK]ILEK([AEEA-AEEA-γGlu-C20 diacid])KAA[Iva]EFVEWLIEGGPSSGAPPPS-NH2 (N-terminus assumed; SMILES CC[C@H](C)[C@H](NC(=O)[C@H](CC(C)C)NC(=O)[C@H](Cc1c[nH]c2ccccc12)NC(=O)[C@H](CCC(=O)O)NC(=O)[C@@H](NC(=O)[C@H](Cc1ccccc1)NC(=O)[C@H](CCC(=O)O)NC(=O)[C@](C)(CC)NC(=O)[C@H](C)NC(=O)[C@H](C)NC(=O)[C@H](CCCCN)NC(=O)[C@H](CCCCNC(=O)COCCOCCNC(=O)COCCOCCNC(=O)CC[C@H](NC(=O)CCCCCCCCCCCCCCCCCCC(=O)O)C(=O)O)NC(=O)[C@H](CCC(=O)O)NC(=O)[C@H](CC(C)C)NC(=O)[C@@H](NC(=O)[C@](C)(CCCCN)NC(=O)[C@H](CO)NC(=O)[C@H](CC(C)C)NC(=O)[C@H](CC(=O)O)NC(=O)[C@H](CO)NC(=O)[C@@H](NC(=O)[C@H](Cc1ccccc1)NC(=O)[C@@H](NC(=O)CNC(=O)[C@H](Cc1c[nH]cn1)NC(=O)C(C)(C)NC(=O)[C@@H](N)Cc1c[nH]cn1)[C@@H](C)O)[C@@H](C)O)[C@@H](C)CC)C(C)C)C(=O)N[C@@H](CCC(=O)O)C(=O)NCC(=O)NCC(=O)N1CCC[C@H]1C(=O)N[C@@H](CO)C(=O)N[C@@H](CO)C(=O)NCC(=O)N[C@@H](C)C(=O)N1CCC[C@H]1C(=O)N1CCC[C@H]1C(=O)N1CCC[C@H]1C(=O)N[C@@H](CO)C(N)=O) [Compound No. 0134] | 0.017 | 0.025 | 0.002 |
| H[Aib]HGTFTSDYSILLEK([AEEA-AEEA-γGlu-C20 diacid])KAA[Iva]EFVEWLLAGGPSSGAPPPS-NH2 [Compound No. 0135] | 0.013 | 0.019 | 0.001 |
| H[Aib]HGTFTSDLS[αMeK]LLEK([AEEA-AEEA-γGlu-C20 diacid])KAA[Iva]EFVEWLIEGGPSSGAPPPS-NH2 (N-terminus assumed; SMILES CC[C@H](C)[C@H](NC(=O)[C@H](CC(C)C)NC(=O)[C@H](Cc1c[nH]c2ccccc12)NC(=O)[C@H](CCC(=O)O)NC(=O)[C@@H](NC(=O)[C@H](Cc1ccccc1)NC(=O)[C@H](CCC(=O)O)NC(=O)[C@](C)(CC)NC(=O)[C@H](C)NC(=O)[C@H](C)NC(=O)[C@H](CCCCN)NC(=O)[C@H](CCCCNC(=O)COCCOCCNC(=O)COCCOCCNC(=O)CC[C@H](NC(=O)CCCCCCCCCCCCCCCCCCC(=O)O)C(=O)O)NC(=O)[C@H](CCC(=O)O)NC(=O)[C@H](CC(C)C)NC(=O)[C@H](CC(C)C)NC(=O)[C@](C)(CCCCN)NC(=O)[C@H](CO)NC(=O)[C@H](CC(C)C)NC(=O)[C@H](CC(=O)O)NC(=O)[C@H](CO)NC(=O)[C@@H](NC(=O)[C@H](Cc1ccccc1)NC(=O)[C@@H](NC(=O)CNC(=O)[C@H](Cc1c[nH]cn1)NC(=O)C(C)(C)NC(=O)[C@@H](N)Cc1c[nH]cn1)[C@@H](C)O)[C@@H](C)O)C(C)C)C(=O)N[C@@H](CCC(=O)O)C(=O)NCC(=O)NCC(=O)N1CCC[C@H]1C(=O)N[C@@H](CO)C(=O)N[C@@H](CO)C(=O)NCC(=O)N[C@@H](C)C(=O)N1CCC[C@H]1C(=O)N1CCC[C@H]1C(=O)N1CCC[C@H]1C(=O)N[C@@H](CO)C(N)=O) [Compound No. 0133] | 0.016 | 0.03 | 0.002 |
